We go through one molecule from patent publication US20190307847A1 (NGM BIOPHARMACEUTICALS, published 2019).

The target in this experiment is mouse FGFR4/β-klotho complex co-expressed in rat L6 myoblast cells (mouse, UniProt Q03142 17-799; Q99N32 1-1043). Description: cell-based or functional assay.
Chain of mouse FGFR4/β-klotho complex co-expressed in rat L6 myoblast cells (Q03142 17-799, chain 1 of 2): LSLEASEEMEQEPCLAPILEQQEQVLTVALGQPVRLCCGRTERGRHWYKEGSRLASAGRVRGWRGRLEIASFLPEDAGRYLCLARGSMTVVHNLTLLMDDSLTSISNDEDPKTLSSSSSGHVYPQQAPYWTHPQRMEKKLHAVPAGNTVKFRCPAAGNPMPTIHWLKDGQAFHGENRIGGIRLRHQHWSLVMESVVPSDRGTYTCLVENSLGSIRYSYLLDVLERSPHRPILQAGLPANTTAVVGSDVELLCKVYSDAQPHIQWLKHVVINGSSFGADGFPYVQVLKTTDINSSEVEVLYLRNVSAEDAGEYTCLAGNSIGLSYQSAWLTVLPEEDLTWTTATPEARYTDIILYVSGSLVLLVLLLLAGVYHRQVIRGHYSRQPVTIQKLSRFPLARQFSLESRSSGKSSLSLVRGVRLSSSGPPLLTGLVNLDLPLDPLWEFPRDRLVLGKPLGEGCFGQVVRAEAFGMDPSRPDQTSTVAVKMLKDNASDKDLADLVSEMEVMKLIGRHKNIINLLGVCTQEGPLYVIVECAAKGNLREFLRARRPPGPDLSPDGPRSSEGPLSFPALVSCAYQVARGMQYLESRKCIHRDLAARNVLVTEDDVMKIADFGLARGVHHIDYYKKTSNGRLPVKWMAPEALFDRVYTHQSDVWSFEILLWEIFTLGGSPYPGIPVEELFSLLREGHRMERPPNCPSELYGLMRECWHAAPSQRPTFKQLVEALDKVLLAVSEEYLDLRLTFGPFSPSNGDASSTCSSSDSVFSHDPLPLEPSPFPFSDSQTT
Chain of mouse FGFR4/β-klotho complex co-expressed in rat L6 myoblast cells (Q99N32 whole entry, chain 2 of 2): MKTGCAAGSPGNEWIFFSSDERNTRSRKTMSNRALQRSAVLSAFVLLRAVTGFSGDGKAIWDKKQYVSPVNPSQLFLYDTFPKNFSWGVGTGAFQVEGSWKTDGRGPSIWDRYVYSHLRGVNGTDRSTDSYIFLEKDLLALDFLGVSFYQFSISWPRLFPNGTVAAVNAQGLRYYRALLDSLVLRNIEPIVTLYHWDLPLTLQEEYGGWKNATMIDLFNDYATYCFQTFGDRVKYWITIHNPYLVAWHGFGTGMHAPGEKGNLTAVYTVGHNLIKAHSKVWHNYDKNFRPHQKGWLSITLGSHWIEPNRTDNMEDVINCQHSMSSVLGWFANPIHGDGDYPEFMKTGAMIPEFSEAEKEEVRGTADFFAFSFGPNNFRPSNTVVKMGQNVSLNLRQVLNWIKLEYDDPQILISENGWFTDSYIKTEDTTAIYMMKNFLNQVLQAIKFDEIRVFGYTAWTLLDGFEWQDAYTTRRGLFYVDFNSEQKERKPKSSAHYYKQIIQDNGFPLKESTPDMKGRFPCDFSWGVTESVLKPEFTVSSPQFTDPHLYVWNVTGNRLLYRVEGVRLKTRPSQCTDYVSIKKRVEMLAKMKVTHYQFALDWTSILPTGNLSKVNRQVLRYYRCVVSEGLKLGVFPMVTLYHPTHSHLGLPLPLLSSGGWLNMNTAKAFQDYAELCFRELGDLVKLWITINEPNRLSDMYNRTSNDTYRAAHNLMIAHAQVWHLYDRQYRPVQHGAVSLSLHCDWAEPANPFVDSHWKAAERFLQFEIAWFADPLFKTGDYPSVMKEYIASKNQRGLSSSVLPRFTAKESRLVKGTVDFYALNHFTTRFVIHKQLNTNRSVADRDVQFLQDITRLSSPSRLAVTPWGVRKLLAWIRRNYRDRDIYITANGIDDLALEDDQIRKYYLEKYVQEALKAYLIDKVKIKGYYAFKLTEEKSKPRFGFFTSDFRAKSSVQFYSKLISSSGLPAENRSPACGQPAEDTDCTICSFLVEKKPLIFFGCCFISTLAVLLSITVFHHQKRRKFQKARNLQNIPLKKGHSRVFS

B1: FGF19 variant M70 (ligand)
chain: MRDSSPLVHYGWGDPIRLRHLYTSGPHGLSSCFLRIRADGVVDCARGQSAHSLLEIKAVALRTVAIKGVHSVRYLCMGADGKMQGLLQYSEEDCAFEEEIRPDGYNVYRSEKHRLPVSLSSAKQRQLYKNRGFLPLSHFLPMLPMVPEEPEDLRGHLESDMFSSPLETDSMDPFGLVTGLEAVRSPSFEK
On to B1, for which the “EC50 (pM), ELK luciferase assay in L6 cells” value stood at 38.3 pM and the “Emax (fold potentiation), ELK luciferase assay in L6 cells” value amounted to 1.85 fold potentiation.
